Laboratory results taken from patent US20250312444A1 (BEIJING TUO JIE BIOPHARMACEUTICAL, published 2025).

Target: T1, human RXFP1 receptor (human, UniProt Q9HBX9 1-757)
T1 sequence (looked up): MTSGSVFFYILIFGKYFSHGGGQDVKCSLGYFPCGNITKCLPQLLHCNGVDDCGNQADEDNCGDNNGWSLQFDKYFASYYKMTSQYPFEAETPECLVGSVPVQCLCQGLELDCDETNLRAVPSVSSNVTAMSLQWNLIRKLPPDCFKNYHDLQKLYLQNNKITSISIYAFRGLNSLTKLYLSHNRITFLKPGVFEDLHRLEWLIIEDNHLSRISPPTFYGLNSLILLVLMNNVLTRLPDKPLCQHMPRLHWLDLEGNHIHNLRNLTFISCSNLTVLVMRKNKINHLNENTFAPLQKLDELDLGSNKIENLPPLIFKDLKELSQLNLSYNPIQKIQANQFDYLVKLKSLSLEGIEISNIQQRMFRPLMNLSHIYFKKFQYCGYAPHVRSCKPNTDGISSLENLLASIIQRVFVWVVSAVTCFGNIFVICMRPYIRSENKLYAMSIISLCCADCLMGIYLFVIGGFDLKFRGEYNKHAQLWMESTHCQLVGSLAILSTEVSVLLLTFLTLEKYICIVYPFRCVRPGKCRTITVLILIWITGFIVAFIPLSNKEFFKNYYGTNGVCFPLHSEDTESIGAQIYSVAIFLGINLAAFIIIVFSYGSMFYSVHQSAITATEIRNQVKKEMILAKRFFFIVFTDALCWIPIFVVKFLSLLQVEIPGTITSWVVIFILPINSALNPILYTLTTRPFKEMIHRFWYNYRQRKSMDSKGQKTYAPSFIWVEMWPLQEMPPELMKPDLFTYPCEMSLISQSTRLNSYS
Assay: cell-based or functional assay

- EC50 (nM), cAMP production in THP1 cells, 1% HSA: 28.4 nM
- EC50 (nM), cAMP production in THP1 cells, without HSA: 3.83 nM
B1: 0051 (other)
chain: EVQLLESGGGLVQPGGSLRLSCAASGFTFLTSCMGWFRQAPGKEREGVSSIYTVGGSTFYTNSVKGRFTISRDNSKNTLYLQMNSLRAEDTAVYYCAAGSPARCRLRDPTTFDYWGQGTLVTVSSGGGGQGGGGQGGGGQGGGGQGGGGQSWMEEVIKLCGRELVRAQIAICGMSTWSGGGSGGSGGGQLYSALANKCCHVGCTKRSLARFC
notes: Single-chain fusion: anti-HSA VHH, linker, relaxin-2 B chain, linker, relaxin-2 A chain; also called fusion protein 0051; molecule 0051
